The values that follow come from patent US20190284293A1 (Bristol-Myers Squibb, published 2019).

The chains are these.
T1: human CD73 on cells (human, UniProt P21589 27-549)
T1 sequence: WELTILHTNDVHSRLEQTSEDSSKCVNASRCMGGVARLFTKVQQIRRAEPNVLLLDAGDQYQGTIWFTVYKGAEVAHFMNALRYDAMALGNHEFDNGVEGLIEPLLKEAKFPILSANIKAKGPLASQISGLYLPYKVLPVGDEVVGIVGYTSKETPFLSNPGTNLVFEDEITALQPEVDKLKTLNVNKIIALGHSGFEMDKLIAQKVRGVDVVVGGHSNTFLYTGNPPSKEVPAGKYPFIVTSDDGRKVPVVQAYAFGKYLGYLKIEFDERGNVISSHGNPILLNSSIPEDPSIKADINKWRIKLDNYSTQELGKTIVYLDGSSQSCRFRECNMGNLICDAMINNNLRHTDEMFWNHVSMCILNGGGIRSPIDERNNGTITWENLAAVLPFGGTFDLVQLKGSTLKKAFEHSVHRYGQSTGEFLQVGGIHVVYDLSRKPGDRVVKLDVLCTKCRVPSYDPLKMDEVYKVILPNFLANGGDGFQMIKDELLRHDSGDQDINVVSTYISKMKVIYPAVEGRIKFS

B1: CD73.4-IgG2.5G1-KH (antibody)
heavy: QVQLVESGGGVVQPGRSLRLSCAASGFTFSNYGMHWVRQAPGKGLEWVAVILYDGSNKYYPDSVKGRFTISRDNSKNTLYLQMNSLRAEDTAVYYCARGGSSWYPDSFDIWGQGTMVTVSSASTKGPSVFPLAPSSRSTSESTAALGCLVKDYFPEPVTVSWNSGALTSGVHTFPAVLQSSGLYSLSSVVTVPSSNFGTQTYTCNVDHKPSNTKVDKTVERKCCVECPPCPAPPVAGPSVFLFPPKPKDTLMISRTPEVTCVVVDVSHEDPEVKFNWYVDGVEVHNAKTKPREEQYNSTYRVVSVLTVLHQDWLNGKEYKCKVSNKALPAPIEKTISKAKGQPREPQVYTLPPSREEMTKNQVSLTCLVKGFYPSDIAVEWESNGQPENNYKTTPPVLDSDGSFFLYSKLTVDKSRWQQGNVFSCSVMHEALHNHYTQKSLSLSPGK
light: not shown
B2: CD73.4-IgG2.5G1.1f-KH (antibody)
heavy: QVQLVESGGGVVQPGRSLRLSCAASGFTFSNYGMHWVRQAPGKGLEWVAVILYDGSNKYYPDSVKGRFTISRDNSKNTLYLQMNSLRAEDTAVYYCARGGSSWYPDSFDIWGQGTMVTVSSASTKGPSVFPLAPSSRSTSESTAALGCLVKDYFPEPVTVSWNSGALTSGVHTFPAVLQSSGLYSLSSVVTVPSSNFGTQTYTCNVDHKPSNTKVDKTVERKCCVECPPCPAPPVAGPSVFLFPPKPKDTLMISRTPEVTCVVVDVSHEDPEVKFNWYVDGVEVHNAKTKPREEQYNSTYRVVSVLTVLHQDWLNGKEYKCKVSNKALPSSIEKTISKAKGQPREPQVYTLPPSREEMTKNQVSLTCLVKGFYPSDIAVEWESNGQPENNYKTTPPVLDSDGSFFLYSKLTVDKSRWQQGNVFSCSVMHEALHNHYTQKSLSLSPGK
light: not shown
B3: CD73.4-IgG2.3G1-KH (antibody)
heavy: QVQLVESGGGVVQPGRSLRLSCAASGFTFSNYGMHWVRQAPGKGLEWVAVILYDGSNKYYPDSVKGRFTISRDNSKNTLYLQMNSLRAEDTAVYYCARGGSSWYPDSFDIWGQGTMVTVSSASTKGPSVFPLAPCSRSTSESTAALGCLVKDYFPEPVTVSWNSGALTSGVHTFPAVLQSSGLYSLSSVVTVPSSNFGTQTYTCNVDHKPSNTKVDKTVERKSCVECPPCPAPPVAGPSVFLFPPKPKDTLMISRTPEVTCVVVDVSHEDPEVKFNWYVDGVEVHNAKTKPREEQYNSTYRVVSVLTVLHQDWLNGKEYKCKVSNKALPAPIEKTISKAKGQPREPQVYTLPPSREEMTKNQVSLTCLVKGFYPSDIAVEWESNGQPENNYKTTPPVLDSDGSFFLYSKLTVDKSRWQQGNVFSCSVMHEALHNHYTQKSLSLSPGK
light: not shown
B4: CD73.4-IgG2.5 (antibody)
heavy: QVQLVESGGGVVQPGRSLRLSCAASGFTFSNYGMHWVRQAPGKGLEWVAVILYDGSNKYYPDSVKGRFTISRDNSKNTLYLQMNSLRAEDTAVYYCARGGSSWYPDSFDIWGQGTMVTVSSASTKGPSVFPLAPSSRSTSESTAALGCLVKDYFPEPVTVSWNSGALTSGVHTFPAVLQSSGLYSLSSVVTVPSSNFGTQTYTCNVDHKPSNTKVDKTVERKCCVECPPCPAPPVAGPSVFLFPPKPKDTLMISRTPEVTCVVVDVSHEDPEVQFNWYVDGVEVHNAKTKPREEQFNSTFRVVSVLTVVHQDWLNGKEYKCKVSNKGLPAPIEKTISKTKGQPREPQVYTLPPSREEMTKNQVSLTCLVKGFYPSDIAVEWESNGQPENNYKTTPPMLDSDGSFFLYSKLTVDKSRWQQGNVFSCSVMHEALHNHYTQKSLSLSPGK
light: not shown

The assay addresses T1, human CD73 on cells. Put plainly: cell-based or functional assay.
B1: the “CD73 Inhibition EC50 (nM), cAMP assay, Calu6” value (shortened to “CD73 Inhibition EC50 (nM)”) turned out to be 0.44 nM and the “CD73 Inhibition S:B (inhibition versus background)” value was determined as 42.
On the same counts, the results for B2 are 0.87 nM and 45.
As to B3, the “CD73 Inhibition EC50 (nM)” value worked out at 1.7 nM and the “CD73 Inhibition S:B (inhibition versus background)” value was 52.
As for B4, the “CD73 Inhibition EC50 (nM)” value is 2.17 nM and the “CD73 Inhibition S:B (inhibition versus background)” value is 51.
